In patent US9212226B2, “Amino acid sequences directed against CXCR4 and other GPCRs and compounds comprising the same” (Ablynx N.V., priority 2008, dated 2015):
Each block holds one molecule with its values, some of them ahead of it.

Assays:
CXCR4 [1] = biological target: T1, CXCR4 (Homo sapiens, UniProt P61073); assay: Phage ELISA binding assay on CHO-CXCR4 versus CHO membranes; set-up: expressed in transfected cells; host or cells: CHO cells (membrane preparation); conditions: monoclonal phages, CHO-CXCR4 vs CHO membranes
Experimental: FIG. 2. Results from Phage ELISA (as described in example 1.5).
In order to determine binding specificity of the Nanobodies, 15 ul of the produced phage were tested in an Phage ELISA binding assay.
In short, 2 ug in 100 ul PBS of membrane expressing either CXCR4 (CHO-CXCR4) or a non relevant GPCR(CHO) were coated directly on Maxisorp microtiter plates (Nunc) overnight at 4 C. Free binding sites were blocked using 4% Marvel in PBS for 1 h. Next, 15 ul of monoclonal phages was added in 100 ul 1% Marvel PBS for 2 hours. […] Binding specificity (binding to CHO-CXCR4) was determined based on OD values compared to controls (binding to CHO).
Target sequence in this assay (P61073 with tags, fused parts or gaps isoform P61073-2 limits assumed): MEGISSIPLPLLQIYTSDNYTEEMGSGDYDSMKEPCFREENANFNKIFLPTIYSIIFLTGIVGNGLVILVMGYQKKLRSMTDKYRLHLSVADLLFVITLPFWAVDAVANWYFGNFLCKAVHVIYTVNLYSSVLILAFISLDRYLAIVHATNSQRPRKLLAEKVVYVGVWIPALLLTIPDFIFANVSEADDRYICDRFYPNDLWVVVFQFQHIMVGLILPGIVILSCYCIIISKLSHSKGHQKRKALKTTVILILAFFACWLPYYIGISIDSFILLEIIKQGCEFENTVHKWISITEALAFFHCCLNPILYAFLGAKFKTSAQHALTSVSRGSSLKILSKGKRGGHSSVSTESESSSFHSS

CXCR4 [2] = biological target: T1, CXCR4; assay: [125I]-238D4 competition binding on membranes from HEK293T cells transiently expressing CXCR4; conditions: membranes from HEK293T cells transiently expressing CXCR4; mean ± S.E.M.
Experimental: HEK293T cells were maintained at 37° C. in a humidified 5% CO2, 95% air atmosphere in Dulbecco's modified Eagle's medium (DMEM) containing 2 mM L-glutamine, 50 IU/ml penicillin, 50 μg/ml streptomycin, and 10% (v/v) fetal calf serum. Jurkat cells were cultured in a humidified 5% CO2, 95% air atmosphere in a 1:1 mixture of Dulbecco's modified Eagle's medium (DMEM) and Ham's F12 medium containing 2 mM L-glutamine, 50 IU/ml penicillin, 50 μg/ml streptomycin, and 10% (v/v) fetal calf serum. […] [^125 I]-Labelling— Radiolabeling of Nanobodies with ^125I was performed using the Iodo-gen method (Pierce, Rockford, Ill.) according to the manufacturer's protocol. ^125I-labeled Nanobodies was separated from free iodine (>99%) using a Sephadex G-25 gel filtration column (Amersham Biosciences, Piscataway, N.J.). […] Competition Binding Assays— Membranes from HEK293T cells transiently expressing CXCR3 or CXCR4 were prepared 48 h after transfection as follows. Cells were washed and scraped from the cell culture dishes with ice-cold PBS containing 1 mm EDTA. The scraped cells were pelleted at 1500×g for 10 min at 4° C. The pellet was washed and then resuspended in ice-cold membrane buffer (15 mM Tris, pH 7.5, 1 mM EGTA, 0.3 mM EDTA, and 2 mM MgCl2). The cell suspension was homogenized by 10 strokes at 1200 rpm using a Teflon-glass homogenizer and rotor and further subjected to three freeze-thaw cycles using liquid nitrogen. Membranes were separated by centrifugation at 40,000 g for 25 min at 4° C. The membrane pellet was washed and resuspended in ice-cold Tris-sucrose buffer (20 mM Tris, pH 7.4, and 250 mM sucrose) and frozen in liquid nitrogen. The total protein was determined using a Bradford assay (Bio-Rad). […] Membranes were then harvested over polyethylenimine (0.5%)-treated Whatman GF/C filter plates and washed three times with ice cold binding buffer containing 500 mM NaCl. Plates were counted by liquid scintillation. Inositol Phosphate Accumulation Assay— 24 hours post transfection with pcDNA3.1-CXCR4 and pcDNA1-HA-mG {alpha} qi5 (see Verzijl et al, 2008 supra), 250.000 cells were seeded into 24-wells plates and labelled overnight using inositol-free minimal essential medium supplemented with 1 μCi myo-[2-^3H]-inositol. The next day, the cells were washed once to remove not incorporated myo-[2-^3H]-inositol. […] In agonist experiments, the cells were directly stimulated with test compounds and LiCl (10 mM) in assay buffer for 2 h at 37° C. The stimulation was stopped by aspirating the stimulation medium and adding ice-cold 10 mM formic acid. The accumulated inositol phosphates were isolated by anion exchange chromatography and counted by liquid scintillation. CRE Reporter Gene Assay— HEK239T cells were transfected with pCRE/β-galactosidase (Chen W, Shields T S, Stork P J S, Cone R D (1995) Anal Biochem 226:349-354) and plasmids (pcDEF3 or pcDNA3.1) encoding the indicated receptors. 40,000 transfected cells per well were seeded into 96 well plates and grown in DMEM supplemented with 10% fetal calf serum. The medium was replaced 32 h after transfection by serum-free DMEM supplemented with 0.5% bovine serum albumin and ligands as indicated. […] The β-galactosidase activity was determined by the measurement of absorption at 420 nm with a PowerwaveX340 plate reader (Bio-Tek Instruments Inc., Winooski, Vt.) after incubation with the assay buffer when the OD420 value for forskolin (3 μM) controls reached 0.4-0.6. Chemotaxis Assay— The chemotactic responsiveness of Jurkat 3D cells was assessed using ChemoTx™ plates (Receptor Technologies Ltd., Oxon, UK) in which a upper cell-containing compartment is separated from a lower chemoattractant-containing compartment by a polyvinylpyrollidone-free polycarbonate filter with 5-μm pores. Cells were harvested, washed and resuspended in RPMI containing 0.5% bovine serum albumin and then loaded to 150,000 cells per well in a volume of 25 μl into the upper compartment of the chemotaxis chamber.
Target sequence in this assay (P61073 whole entry): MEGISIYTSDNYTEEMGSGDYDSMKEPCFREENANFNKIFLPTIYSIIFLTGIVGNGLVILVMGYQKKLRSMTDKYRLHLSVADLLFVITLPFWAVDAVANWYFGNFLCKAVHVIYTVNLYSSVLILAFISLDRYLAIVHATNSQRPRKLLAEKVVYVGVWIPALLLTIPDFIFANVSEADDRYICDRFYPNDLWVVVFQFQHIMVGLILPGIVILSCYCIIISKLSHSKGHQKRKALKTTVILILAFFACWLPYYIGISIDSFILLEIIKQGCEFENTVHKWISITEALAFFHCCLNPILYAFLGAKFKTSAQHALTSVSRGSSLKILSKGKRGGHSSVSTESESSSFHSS

specificity toward CXCR4 expressing membrane compared to non-expressing membrane (CXCR4 [1]): high specificity
B1: 238D2: Nanobody (VHH) raised against human CXCR4, SEQ ID NO: 238 (protein)
VHH: EVQLVESGGGLVQTGGSLRLSCAASGFTFSSYAMSWVRQAPGKGLEWVSGIKSSGDSTRYAGSVKGRFTISRDNAKNMLYLQMYSLKPEDTAVYYCAKSRVSRTGLYTYDNRGQGTQVTVSS
modifications: Nanobody, Nanobody constructs or fragments thereof

Displacem. (%) of [125I]-238D4 (maximal displacement) (CXCR4 [2]): 103 ± 1%
B2: 238D4: Nanobody (VHH) raised against human CXCR4, SEQ ID NO: 239 (protein)
VHH: EVQLMESGGGLVQAGGSLRLSCAASGRTFNNYAMGWFRRAPGKEREFVAAITRSGVRSGVSAIYGDSVKDRFTISRDNAKNTLYLQMNSLKPEDTAVYTCAASAIGSGALRRFEYDYSGQGTQVTVSS
modifications: Nanobody, Nanobody constructs or fragments thereof
